The source of these data is paper PMC11432006.

Sequences and labels used below:
B1: anti-lysozyme VNAR (lyso-VNAR) C30A; C112.1S (protein)
chain: ARVDQTPQTITKETGESLTINCVLRDSNAALSSTYWYRKKSGSTNEESISKGGRYVETVNSGSKSFSLRINDLTVEDSGTYRCKPESRYGSYDAESAALNDQYGGGTVVTVN
B2: anti-lysozyme VNAR (lyso-VNAR) C30G; C112.1L (protein)
chain: ARVDQTPQTITKETGESLTINCVLRDSNGALSSTYWYRKKSGSTNEESISKGGRYVETVNSGSKSFSLRINDLTVEDSGTYRCKPESRYGSYDAELAALNDQYGGGTVVTVN
B3: anti-lysozyme VNAR (lyso-VNAR) C30P; C112.1T (protein)
chain: ARVDQTPQTITKETGESLTINCVLRDSNPALSSTYWYRKKSGSTNEESISKGGRYVETVNSGSKSFSLRINDLTVEDSGTYRCKPESRYGSYDAETAALNDQYGGGTVVTVN
B4: anti-lysozyme VNAR (lyso-VNAR) C30W; C112.1V (protein)
chain: ARVDQTPQTITKETGESLTINCVLRDSNWALSSTYWYRKKSGSTNEESISKGGRYVETVNSGSKSFSLRINDLTVEDSGTYRCKPESRYGSYDAEVAALNDQYGGGTVVTVN
B5: anti-lysozyme VNAR (lyso-VNAR) C30L; C112.1L (protein)
chain: ARVDQTPQTITKETGESLTINCVLRDSNLALSSTYWYRKKSGSTNEESISKGGRYVETVNSGSKSFSLRINDLTVEDSGTYRCKPESRYGSYDAELAALNDQYGGGTVVTVN
B6: anti-lysozyme VNAR (lyso-VNAR) C30G; C112.1A (protein)
chain: ARVDQTPQTITKETGESLTINCVLRDSNGALSSTYWYRKKSGSTNEESISKGGRYVETVNSGSKSFSLRINDLTVEDSGTYRCKPESRYGSYDAEAAALNDQYGGGTVVTVN
B7: anti-lysozyme VNAR (lyso-VNAR) C30L; C112.1A (protein)
chain: ARVDQTPQTITKETGESLTINCVLRDSNLALSSTYWYRKKSGSTNEESISKGGRYVETVNSGSKSFSLRINDLTVEDSGTYRCKPESRYGSYDAEAAALNDQYGGGTVVTVN

For this assay, the target named is lysozyme from egg, P00698. Nature of the assay: SPR. Particulars: chain shown with the change; lysozyme immobilized, VNAR flowed over; 1:1 fitting model.
Sequence of lysozyme from egg, P00698 (P00698 19-147): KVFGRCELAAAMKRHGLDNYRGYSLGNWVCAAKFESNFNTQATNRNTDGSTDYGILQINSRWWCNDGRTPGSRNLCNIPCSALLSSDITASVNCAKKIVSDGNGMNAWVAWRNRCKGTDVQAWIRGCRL
On to B1, for which the ratio to parent was determined as 31.5.

Turning to B2, the ratio to parent was 12.7.

On to B3, for which the ratio to parent came out at 211.

With B4, the ratio to parent worked out at 54.3.

As to B5, the ratio to parent came to 100.

Turning to B6, the ratio to parent was 24.1.

For the molecule B7, the ratio to parent was 19.1.
